Test results reported in patent US20220000762A1, “COMPOSITIONS FOR TREATING OXIDATIVE STRESS-ASSOCIATED SKIN DISEASES AND SKIN AGEING AND DIAGNOSIS OF OXIDATIVE STRESS-ASSOCIATED SKIN DISEASES” (priority 2019, published 2022).

Legend:
THP-1 cells = experiment: MTT viability assay, paraquat oxidative stress, monocytes; assay type: cell-based, human
Procedure: (§1) Human keratinocytes (HaCat cells; disclosed in Boukamp et al. 1988 J Cell Biol 106:761-71 and available from Deutsches Krebsforschungszentrum, DKFZ, info@cell-lines-service.de; and also commercially available for example from Addexbio, San Diego, Calif., catalogue number T0020001) were grown in SFM medium supplemented with L-glutamine, EGF (epidermal growth factor) and bovine pituitary extract (Gibson, Invitrogen) until 90% confluency in 96-well plates (Nunc A/S, Roskilde, Denmark). Human monocytes (THP-1 cells; disclosed in Tsuchiya et al. 1980 Int J Cancer 26:171-6; commercially available for example from Sigma-Aldrich, catalogue number 88081201; kindly provided by Dr Arne Egesten, Lund University) were cultured in RPMI 1640 medium supplemented with Glutamax-1 (Gibco®, ThermoFisher Scientific), 100 μg/ml streptomycin, 100 μg/ml penicillin, and 10% v/v foetal calf serum (ThermoFisher Scientific). All cells were grown at 37° C. in 5% CO2 and 95% humidity.
(§2) HaCat cells cultured to 90% confluency, or THP-1 cells (1.2×10^6 cells/well) in a 96-well plate were treated with 2 mM paraquat (Sigma-Aldrich) and/or 5 μM RoxP for 24-48 h. […] Viability was measured by the addition of 0.5 mg/ml 3-(4,5-demethylthiazol-2-yl)-2,5-diphenyltetrazolium bromide (MTT) for 1-5 hours. […] The samples incubated for 30 minutes and absorbance at 550 nm was measured using a Wallac 1420 Multilabel Counter ([…]). […]

HaCat cells = experiment: MTT viability assay, paraquat oxidative stress, keratinocytes; assay type: cell-based, human
Procedure: as §1, §2

B1: RoxP: radical oxygenase of Propionibacterium acnes, secreted antioxidant protein of C. acnes; SEQ ID NO: 1 for strain KPA171202 (protein)
chain: MFVQIAASLAAASSIALGIPGAATPIDESQLPVGPQVSVTDSAQHTGPFAASSPLTITVKPGAPCVRADGYQESMVTRVLDDKGHQVWTGTFDESKLIGGTGLGTATFHVGSPAAAFNFHGSERTTYRTLSYCAYPHYVNGTRERLSQVSVKTFMVDPALN
modifications: Cutibacterium acnes
In the case of B1, the “effect on negative oxidative effect of paraquat (cell viability)” value (THP-1 cells; 2 mM paraquat, 5 μM RoxP (1:400 RoxP:oxidizer), 48 h, effect more prominent than in keratinocytes) is reported as “completely inhibited”, the “overall viability in the absence of an added oxidizer” value (THP-1 cells; no paraquat) is reported as “increase the overall viability” and the “effect on negative oxidative effect of paraquat (cell viability)” value (HaCat cells; 2 mM paraquat, 5 μM RoxP (1:400 RoxP:oxidizer), 24 h, responded less well) is reported as “completely inhibited”. The “overall viability in the absence of an added oxidizer” value (HaCat cells; no paraquat) was “increase the overall viability”.
